Test [1] concerns split Nanoluciferase (LgBiT/SmBiT) reconstitution in HEK293 cells. The experiment in a line: Split NanoLuc reconstitution assay (NanoBiT). The format is cell-based, human. The note with it: 100 nM simeprevir over no simeprevir; LgBiT fused to the C-terminus of the PRSIM binding module. The procedure:
The ability of the PRSIM binding molecules to promote dimerization of two proteins to which they are fused was assessed with the NanoBiT system (Promega) that measures the reconstitution of a split Nanoluciferase (NanoLuc) and the resultant luminescence upon supply of a live cell imaging Nano-Glo NanoLuc substrate (FIG. 8). In the NanoBiT system, one interaction partner is fused via a flexible linker to an 18 kDa fragment of NanoLuc termed LgBiT (for “large bit”) (SEQ ID NO: 16) and the other is fused via an equivalent linker to a 1.3 kDa peptide SmBiT (“small bit”) (SEQ ID NO: 17). LgBit and SmBiT have a low affinity (190 μM) for each other in the absence of interacting partners and will not reconstitute to form an active luciferase enzyme. Once fused to the interacting proteins of a CID and supplied with inducer, they will reconstitute, and luminescence can be measured. The NanoBiT system supplies two sets of control proteins fused to LgBiT and SmBiT: a set of constitutively interacting proteins PRKAR2A:PRKACA; and the FRB:FKBP12 pair whose dimerization can be induced with rapamycin.
To establish the optimal orientation of the HCV NS3/4A PR (S139A) and PRSIM components, constructs whereby HCV NS3/4A PR (S139A) was fused at either the N- or C-terminus to SmBiT (SEQ ID NOs: 18 and 19, respectively) and a parallel set of constructs for each PRSIM binding module fused to either the N- or C-terminus of LgBiT (SEQ ID NOS: 20-30 and 31-41, respectively). The NanoBiT kit (Promega) supplies a set of vectors enabling these constructs to be generated. DNA strings encoding HCV NS3/4A PR (S139A) and the PRSIM molecules were purchased from GeneArt and amplified via PCR with primers with extensions containing restriction sites compatible with the NanoBiT vectors and were cloned via Gibson assembly. All constructs were verified via Sanger sequencing of the entire coding sequence.
All NanoBiT screens were performed in adherent HEK293 cells cultured in 96-well plates. Cells enzymatically dissociated from a tissue culture flask were counted and plated at 2×10^4 cells/well in a white, opaque-bottomed 96-well plate (Costar 3917). The plates were incubated overnight at 37° C. with 5% CO2 to allow the cells to adhere. On day 2, plasmids were co-transfected with Lipofectamine LTX (ThermoFisher) at a final concentration of 100 ng/well (50 ng/plasmid, one encoding a SmBiT fusion, the other a LgBiT fusion). On day 3, wells were treated with 100 nM of the appropriate small molecule inducer (rapamycin (FRB:FKBP12) or simeprevir (HCV NS3/4A PR:PRSIM)) or vehicle control, and luminescence was quantified with an Envision plate reader immediately following addition of Nano-Glo Live Cell Substrate (Promega).

The subject of another test is HCV NS3/4A PR D168E. The experiment in a line: Biacore 8K binding kinetics, mutant protease to PRSIM_23. The note with it: 20 nM simeprevir. Also noted: species or system Hepatitis C virus subtype 1a. The procedure:
(§1) The scFv and Tn3 PRSIM binding molecules were covalently immobilised to a CM5 chip surface using standard amine coupling techniques at a concentration of 1 μg/ml in 10 mM sodium acetate pH 4.5.
(§2) The HCV NS3/4A PR (S139A), or BSA control, was diluted 1:4 (1.25-20 nM)±10 nM simeprevir in 10 mM Hepes pH 7.4, 150 mM NaCl, 0.05% Surfactant P20, 0.01% DMSO, ensuring constant simeprevir and DMSO concentration. The samples were flowed over the chip at 50 μl/min using single cycle kinetics, with 120 sec association and 600 sec dissociation. The chip surface was regenerated with two 20 sec pulses of 10 mM Glycine-HCl pH 3.0. The final sensorgrams were analysed using the Biacore 8K Evaluation Software and the affinity constant KD was determined using a 1:1 binding model. The same method was used for measuring the affinity of the HCV NS3/4A PR mutants for PRSIM_23 with minor deviations. The mutants were diluted 1:4 (2.5-40 nM)±simeprevir in 10 mM Hepes pH 7.4, 150 mM NaCl, 0.05% Surfactant P20, 0.08% DMSO, ensuring constant simeprevir and DMSO concentration. The samples were flowed over the chip at 50 μl/min using single cycle kinetics, with 180 sec association and 600 sec dissociation.

Another test relates to HCV NS3/4A PR K136D. The test is described as above. Also noted: species or system Hepatitis C virus subtype 1a. The procedure: as §1, §2
For the next test, the system named is HCV NS3/4A PR K136N. Described as above. Also noted: species or system Hepatitis C virus subtype 1a. The procedure: as §1, §2

From patent US20220380801A1, “TRIPARTITE SYSTEMS FOR PROTEIN DIMERIZATION AND METHODS OF USE” (priority 2019, published 2022) come the findings set out here.

B1: PRSIM_57: scFv specific for HCV NS3/4A PR (S139A):simeprevir complex, SEQ ID NO: 12 (protein)
scFv: QVQLVQSGAEVKKPGSSVKVSCKASGGTFSSYAISWVRQAPGQGLEWMGGIIPIFGTANYAQKFQGRVTITADESTSTAYMELSSLRSEDTAVYYCARHTNYITVFDYWGQGTLVTVSSGGGGSGGGGSGGGGSAQSVLTQPPSASGTPGQRVTISCSGSSSNIGSNTVNWYQQLPGTAPKLLIYSNNQRPSGVPDRFSGSKSGTSASLAISGLQSEDEADYYCAAWDHHWEQVVFGGGTKLTVL
modifications: PRSIM_57
As to B1, the fold-change in luminescence in test [1] was found to be 14 fold.

B2: PRSIM_33: Tn3 PRSIM binding molecule, SEQ ID NO: 7 (protein)
chain: RLDAPSQIEVKDVTDTTALITWYPPGRWYDDIWYFELTYGIKDVPGDRTTIKLARGDDVYSIGNLKPDTEYEVSLISWGPDRGDRAGSNPAKITFKTGL
modifications: PRSIM_33
For the molecule B2, the fold-change in luminescence in test [1] is given as 9 fold.

B3: PRSIM_23: Tn3 protein specific for HCV NS3/4A PR (S139A):simeprevir complex, SEQ ID NO: 5 (protein)
chain: RLDAPSQIEVKDVTDTTALITWVDPRYDDIWWFELTYGIKDVPGDRTTIKLYLNDPYYSIGNLKPDTEYEVSLISYTGDSYSRSGSNPAKITFKTGL
modifications: PRSIM_23
Regarding B3, the Rmax with HCV NS3/4A PR D168E turned out to be 199 RUs; in the test on HCV NS3/4A PR K136D (K136D, 800 nM simeprevir), 168 RUs; in the test on HCV NS3/4A PR K136N (K136N, 40 nM simeprevir) it was 198 RUs. Besides, the ka is 1.47e+09 M⁻¹ s⁻¹ with HCV NS3/4A PR D168E; 1.69e+10 M⁻¹ s⁻¹ in the test with HCV NS3/4A PR K136D (K136D, 800 nM simeprevir); 5.31e+08 M⁻¹ s⁻¹ with HCV NS3/4A PR K136N (K136N, 40 nM simeprevir). In addition, the kd was 21.4 s⁻¹ at HCV NS3/4A PR D168E; 373 s⁻¹ on HCV NS3/4A PR K136D (K136D, 800 nM simeprevir); 20.4 s⁻¹ on HCV NS3/4A PR K136N (K136N, 40 nM simeprevir). For the same molecule, the “decrease in affinity for PRSIM_23 compared to ‘Wt’” value in the test with HCV NS3/4A PR K136D (K136D versus ‘WT’ (S139A)) and in the test with HCV NS3/4A PR K136N (K136N versus ‘WT’ (S139A)) was 6-7 fold throughout. For the same molecule, the fold-change in luminescence in test [1] was 31 fold.
